Measurements as given in the DeepSol protein solubility set.

experiment: soluble on expression in E. coli; label from the status in PepcDB or PDB records

Row | Sequence | soluble on expression in E. coli
1 | MGPTPHIAVIGGGSTGAGIARDLAMRGLDVTLVEQGNLTHGTTGRMHGLLHSGGRYAVSDQASATECIEENRVLRDIASHCVEMTGGLFVKRPEDSEEYFQKKLNGCEECGIPAEVVSGEEARAMEPHLAKDIDKAISVPDGAIDPFRLVVANAASAQEHGARIETHTKVTDLLVESGEVVGIEVEHDSGPGKRVHGTEGGTEQIRADYVVNATGAWAGRIGDMAGLDIEVRPSKGVMTIMNIRQVDTVINRCRPKGDADIVVPHETTAILGTTDEEVEDPEDYPEEQWEVDMMIDTLSELIPMLDEARTIRSFWGVRPLYEPPDVGSDDPTDITRDFFLLDHDERDDLPGMTSIVGGKFTTYRMMGEQIADHVCGKFGIDADCRTADEPLPGSEDFSVLRDYMDEFGLRSPIGRRSVERLGSRADDVLKTDGPNPTVCACEGVTRAEIQDAIGGSGSDLNAVRIRTRASMGNCQGGFCSHRMASELHSEYDEPVVREAWDELLQERWKGQRHALWGEQLSQAALNYALHATTQNRDQDPADGEPVDFSAFDSGRGQTGGSVDSADVAADGGTNGYLEHHHHHH | not soluble
2 | PKTLYDKIWDAHLAHEAEDGTCLLYIDRHLVHEVTSPQAFEGLRMAGRKVRAPEKTIAVPDHNVPTTEGREDPAQMTEESRIQVQALDKNAREFGVHYYPVDDIRQGIVHIVGPEQGWTLPGMTVVCGDSHTATHGAFGALAHGIGTSEVEHVLATQTLIQKKSKN | not soluble
3 | MGSDKIHHHHHHMDRIIEKLDHGWWVVSHEQKLWLPKGELPYGEAANFDLVGQRALQIGEWQGEPVWLVQQQRRHDMGSVRQVIDLDVGLFQLAGRGVQLAEFYRSHKYCGYCGHEMYPSKTEWAMLCSHCRERYYPQIAPCIIVAIRRDDSILLAQHTRHRNGVHTVLAGFVEVGETLEQAVAREVMEESGIKVKNLRYVTSQPWPFPQSLMTAFMAEYDSGDIVIDPKELLEANWYRYDDLPLLPPPGTVARRLIEDTVAMCRAEYE | soluble
4 | MKEVLRVRTTKHTSIVNITQQVDQVVKKSGVREGICVVYTPHTTACVFVNEGADPDVVRDIVYSLEKLIPWNDPSYAHMEGNSAAHIRSAIIGNSRVIPIIDGELALGTWESIFLADFDGPRERKVIVVVLGEKLEHHHHHH | not soluble
5 | MSLKHPDPAQKVEGTTATTPTKVAAFFDLDKTIIAMSSTYAYGREFMNSGLISPVEALQLSLAQATYMFAGHTSEQMDNTRDQLTAMIRGWEVQQVRSIAEETMHSVVTPTIYAEARELIEHHQELGHDVIIISASVKELVEPIARELGVHKTVTTVLEAHDGMYTGEVLFYCKGDAKAQSILDLAEANNYDLSLSFAYSDSFTDLPMLEAVGNPAAVNPDRALKKIALEQGWKILSFKNPEPLFQEGHHHHHH | soluble
6 | MTEGLAVELAGLRSFSIVMPAYNVVTQRGERIFRETLESIAASCRYLQQHFPYTPEGELILISDGSTDRTCDVAMAGWPNAVPLQLVGLPTNVGIAAARNIGVRLAKGEVIFFCDADDLYRPEHLFLALSVLNQPLPEPYAPAYFGAVRTGVYCRDRLHPYWHKSLEQTLVLNLAVRREVHEFIGGFPEDEVFRQFRYGAEDVAYAYWLHQFCHTARLEQRTVEYRRFPNSVFDRQLKKFQAAPGTVADDLDEGDRQQEAQIRQIMATRLQELQAKAAQGVALEHHHHHH | not soluble
7 | AKNECHPERTDGCQHFCLPGQESYTCSCAQGYRLGEDHKQCVPHDQCACGVLTSEKRAPDLQDLPWQVKLTNSEGKDFCGGVIIRENFVLTTAKCSLLHRNITVKTYFNRTSQDPLMIKITHVHVHMRYDADAGENDLSLLELEWPIQCPGAGLPVCTPEKDFAEHLLIPRTRGLLSGWARNGTDLGNSLTTRPVTLVEGEECGQVLNVTVTTRTYCERSSVAAMHWMDGSVVTREHRGSWFLTGVLGSQPVGGQAHMVLVTKVSRYSLWFKQIMNAHHHHHH | soluble
8 | MAGDPMSTVAFHTLGCKVNHYETEAIWQLFKEANYERVDFEANADVFVINTCTVTNTGDKKSRQIIRRAIRQNPDAVICVTGCYAQTSSAEIMEIPGVDVVVGTQDRHKLLGYIDEFRKERQPINGVGNIMKNRKYEELDVPYFTDRTRASLKIQEGCNNFCTFCIIPWARGLMRSRDPEKVVEQATQLVNSGYKEIVLTGIHTGGYGQDLKDYNLAQLLRDLETINGLERIRISSIEASQLTDEVIDVLERSTKVVRHLHIPLQSGSDTVLKRMRRKYTMDRFSERLTKLHKALPDLAVTSDVIVGFPGETEAEFQETYDFIVKHKFSELHVFPYSPRIGTPAARMDDQIDEEIKNERVHKLITLSNQLGKLYASKFDQDVLEVIPEEQGDTEGTLVGYADNYMKVQFEGDESLIGQIVKVKITQANYPLNEGQAIKVVDFATNKSDREVLVLEHHHHHH | soluble
9 | MTKDQNGTWEMESNENFEGYMKALDIDFATRKIAVRLTQTKIIVQDGDNFKTKTNSTFRNYDLDFTVGVEFDEHTKGLDGRNVKTLVTWEGNTLVCVQKGEKENRGWKQWVEGDKLYLELTCGDQVCRQVFKKK | soluble
10 | DVRGMSQSVGAVVRGFATADPHVRIAGVILNKVGTDRHAEVCREAVEAVGVRVLGAIPRVDHAEVPSRHLGLITSVELDAAEDAVAAMATMVEEHVDLNALIELADCAYNGPAWDPALAMGMSDAEALDN | not soluble
11 | MGSDKIHHHHHHMSRPKILYFITEDWYFCSHRLPLALAARDAGYDVAVVTNVNEHADVIRRAGIRLIPFDLSRKGMNPASELAVLARLIALYRKEKPDIVHQVAMKPVLYGSLAARLSGVSRVVNALAGLGYIFTSDQPKARFLRPVIGSAFRGLLNSRRSRLILQNQDDRAKFIRKRFISEKRIRLIRGSGVDTAVFVPTPEPPGVPVVILPSRMLWDKGVREFVDAAGQLKKRGISARFVLVGDADPHNPSAIHTEQLTAWHAEGAVEWWGRRDDMPAVFEQSHIVCLPSYREGLPKVLLEAASCGRPIVTTDTPGCRDVVRQGENGLLVPVRGTAELADALQLLIEQPALRKKMGCKGREIVVSEFALEKVVAKTMNIYRELLKP | not soluble
12 | SNYLDQMEEYDKVEEISRKHKHNCFCIQEVVSGLRQPVGALHSGDGSQRLFILEKEGYVKILTPEGEIFKEPYLDIHKLVQSGIKGGDERGLLSLAFHPNYKKNGKLYVSYTTNQERWAIGPHDHILRVVEYTVSRKNPHQVDLRTARVFLEVAELHRKHLGGQLLFGPDGFLYIILGDGMITLDDMEEMDGLSDFTGSVLRLDVDTDMCNVPYSIPRSNPHFNSTNQPPEVFAHGLHDPGRCAVDRHPTDININLTILCSDSNGKNRSSARILQIIKGKDYESEPSLLEFKPFSNGPLVGGFVYRGCQSERLYGSYVFGDRNGNFLTLQQSPVTKQWQEKPLCLGTSGSCRGYFSGHILGFGEDELGEVYILSSSKSMTQTHNGKLYKIVDPKRPLMPEECRATVQPAQTLTSECSRLCRNGYCTPTGKCCCSPGWEGDFCRTAKCEPACRHGGVCVRPNKCLCKKGYLGPQCEHHHHHH | soluble
13 | VSRDENSWLIDGATPLEEVTRVLDIAYFPDEENYETISGFMMYMLRKIPKKTDSVVYGKYKFEVIDTENFKIDQILVSLVKEQE | not soluble
14 | MIPRKEMAAVSTEMTMAEMLEVMLKEKYTRWPVTDGDKDSVLGLVNTKHLFSDLLFMTEEERMKMTIHPYVRPVIEVIETIPVHDLLIKMQRERIHMAILSDEYGGTSGLVTTEDILEEIVGEIR | not soluble
15 | MTPLGPASSLPQSFLLKCLEQVRKIQGDGAALQEKLCATYKLCHPEELVLLGHSLGIPWAPLSSCPSQALQLAGCLSQLHSGLFLYQGLLQALEGISPELGPTLDTLQLDVADFATTIWQQMEELGMAPALQPTQGAMPAFASAFQRRAGGVLVASHLQSFLEVSYRVLRHLAQP | soluble
16 | QECTKFKVSSCRECIESGPGCTWCQKLNFTGPGDPDSIRCDTRPQLLMRGCAADDIMDPTSLAETQEDHNGGQKQLSPQKVTLYLRPGQAAAFNVTFRRAKGY | soluble
17 | MTDQPDVQRVQTASRDNSTVIDLREYKTNKDPLPVTFHRRELDAILRIYGRMVGEGEWRDYAIDHLKEKAVFSVFKRSGEMPLYRIEKNPKLATKQGAYCVVNVDGRILKRGHELPQVLKVFDKVLKLIE | not soluble
18 | SNANEAQQYYLDADEAEAWIGEQELYVISDEIPKDEEGAIVMLKRHLRQQRAVEDYGRNIKQLASRAQGLLSAGHPEGEQIIRLQGQVDKHYAGLKDVACERKRKLENMYHLFQLKRETDDLEQWISEKELVASSPEMGQDFDHVTLLRDKFRDFARETGAIGQERVDNVNAFIERLIDAGHSEAATIAEWKDGLNEMWADLLELIDTRMQLLAASYDLHRYFYTGAEILGLIDEKHRELPEDVGLDASTAESFHRVHTAFERDVHLLGVQVQQFQDVATRLQTAYAGEKAEAIQNKEQEVSAAWQALLDACAGRRTQLVDTADKF | soluble
19 | MTNNSTKVCVLLATYNGTKWCLDQVKSILNQEDVNLEVFVSDDLSSDSTTDLLALLNDSRIHILASSYKFGSACQNFFRLVRDVDFSEYDYIAFADQDDLWNPNKLSYSIEQLNAHCADAFSSNVTAFWPDGRARLIVKDQPQREWDFLFESAGPGCTFVLTKKLACNLANFLHNNYEKTKGVALHDWFTYAFARSNSYSWWIDSQPTMMYRQHESNEFGVNSGVTAALSRFRKTSNGWYRNQVILIGDLVGAEDSWPIKRMRRFSLLDRMLLLFNVFAFRRSFRDRIALFFLLLLPQKKLEHHHHHH | soluble
20 | MGSDKIHHHHHHMEIDPRAQLIEWESSSLGVKGRMYVYTPPEYHPHGPALPVVYLLRGHEREWVNRREDDSRMGSAIDVYERVRARGEIGPLILAMPGLASTDNRIPGLLADFAAPHLTDAEGIGSGRFATFFFEEVLPLLEREFHAHPQARAITGFSLGGYMAVKAVALHPELFVSVSAYDGSFPYASDNGRRSRRYDTLFTASMFDPALGRPRDPDRLRDHNPICLLMRANRAALRRITWMIQYGPEHIEPWGANFYRGEYLLRALATLGIANATPIAALPDGAHTWAVADRHLEQALPLHYRAFERVMKSDP | not soluble
21 | MSLKGTPGNVPAARTGIEITPAHRAFFHALPKIELHCHLLGAVRHDTFVALAERSGAPIERAEIDAFYARGEKPVGVLHVLRALDRYLLTQPDDLRRIAYEYLEDAAAYNVRHAEFFWNPTGTVHVSGIAYADAQAAIVTGIRDAARDFGIGARLIPSIDREQDPDEAVAIVEWMKANRADEVAGLGIDYRENDRPPELFWKAYRNARAAGFRTTAHAGEFGMPWRNVETAVDLLQVDRVDHGYTIVDNPELCARYAERGIVFTVVPTNSYYLRTLPPEQWAERHPMRKMPGLGLKIHPNTDDPTLHKVNPSEAWELMFSHFGFTVAELKQFMLNGIDGAWVDDTTKAAWRAAWAPEFDVLAATLAAGEGHHHHHH | soluble
22 | MSNVCIVYSSTHHGNTEKVLNKIKEKFPETVLIKAGDFNPDDFNRYEAIGFASGIFYFKFAKPVDKLFEQALVGSVQKLFFIYTAGAVNAGFEKTLRKKTEQSGKICMGIFGCKGFDTFGPLKLIGGLNKNSPNEKDFKNAIDFFEKNIINALEHHHHHH | soluble
23 | AIARENEAVKPTIQAVYLAAGLSSRFGGRIKCLQEVGRHGETLLELSVRQLCEAYPAISSLVFVVSEATHLPIHALIGEQFYGLPVYFCVQRVPAWRKRPLGTVDALLAAREHIHGPFIVLNGDSLYGVAALSLVCNHITAAKTACMPGYKLREVLPKEGRVNRAIVQTDERHRVLEIVEQYNIGFEDIEEGRYTGDELTSMNVFGFHDTSIFARADERFRRFLSELEALRDDHHLQQQQQSVKRCSTDENDVYAHKEYILSTMLNELLHDAQIELMVLSCNSIRTPLELTNPGDFAFVKNHLDLVGL | soluble
24 | MNLNPAHINEPVQKEFLSVIKEYERVIYKVCYLYTTRNATLGDLYQEVILNLWKAYPKFRKECKISTWIYRIALNTCISFIRKEKNVPEIVALTREADWMTEEKDELTEMLRQLYRMINQLGQLDKSIVLLYLEEKSYEEIAEITGLTVTNVATKLSRIKDKLKKMKKEE | not soluble
